Laboratory results as given in patent US6998239 (CHEMOCENTRYX, dated 2006).

How the values were obtained:
[1] = biological target: T1, human CCX CKR with N-terminal Flag epitope, stably expressed on HEK293 cells (human, UniProt Q9NPB9 1-350); assay: displacement of 125I-ELC or 125I-TECK from CCX CKR transfectants, 200 nM cold chemokine
T1 construct: also called HEK293-CCX CKR cells
T1 sequence: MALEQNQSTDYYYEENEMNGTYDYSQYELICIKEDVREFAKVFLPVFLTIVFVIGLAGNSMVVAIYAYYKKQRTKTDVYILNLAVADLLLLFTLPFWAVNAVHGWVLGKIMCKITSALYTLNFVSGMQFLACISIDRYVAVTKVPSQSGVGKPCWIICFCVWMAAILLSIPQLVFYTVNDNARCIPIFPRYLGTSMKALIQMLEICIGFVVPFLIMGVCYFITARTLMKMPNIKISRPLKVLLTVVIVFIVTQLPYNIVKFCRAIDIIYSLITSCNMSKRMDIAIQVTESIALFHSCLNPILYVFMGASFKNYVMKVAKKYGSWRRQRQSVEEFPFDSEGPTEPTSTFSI

[2] = biological target: T1, human CCX CKR with N-terminal Flag …; assay: radioligand binding competition on CCX CKR stable transfectants, Scatchard transformation
[3] = biological target: T1, human CCX CKR with N-terminal Flag …; assay: radioligand binding competition on CCX CKR stable transfectants (similar experiments)

B1: murine TECK (ligand, UniProt O35903 24-144, looked up)
chain: QGAFEDCCLGYQHRIKWNVLRHARNYHQQEVSGSCNLRAVRFYFRQKVVCGNPEDMNVKRAMRILTARKRLVHWKSASDSQTERKKSNHMKSKVENPNSTSVRSATLGHPRMVMMPRKTNN
[1]
  binding result: binds

B2: human TECK (thymus expressed chemokine) (ligand, UniProt O15444 24-150, looked up)
chain: QGVFEDCCLAYHYPIGWAVLRRAWTYRIQEVSGSCNLPAAIFYLPKRHRKVCGNPKSREVQRAMKLLDARNKVFAKLHHNTQTFQAGPHAVKKLSSGNSKLSSSKFSNPISSSKRNVSLLISANSGL
modifications: 125I label where used as radioligand
[1]
  binding result: binds

B3: human ELC (EBI1 ligand chemokine) (ligand, UniProt Q99731 22-98, looked up)
chain: GTNDAEDCCLSVTQKPIPGYIVRNFHYLLIKDGCRVPAVVFTTLRGRQLCAPPDQPWVERIIQRLQRTSAKMKRRSS
modifications: 125I label where used as radioligand
notes: also called MIP-3beta; MIP3beta
[2]
  binding result: binds

B4: murine CTACK (ligand, UniProt Q9Z1X0 26-120, looked up)
chain: LPLPSSTSCCTQLYRQPLPSRLLRRIVHMELQEADGDCHLQAVVLHLARRSVCVHPQNRSLARWLERQGKRLQGTVPSLNLVLQKKMYSHPQQQN
notes: also called mCTACK; CCL27
[3]
  Kd: ~9 nM

B5: human SLC (secondary lymphoid-tissue chemokine) (ligand, UniProt O00585 24-134, looked up)
chain: SDGGAQDCCLKYSQRKIPAKVVRSYRKQEPSLGCSIPAILFLPRKRSQAELCADPKELWVQQLMQHLDKTPSPQKPAQGCRKDRGASKTGKKGKGSKGCKRTERSQTPKGP
notes: also called 6Ckine
[2]
  binding result: binds

B6: murine ELC (ligand, UniProt O70460 26-108, looked up)
chain: GANDAEDCCLSVTQRPIPGNIVKAFRYLLNEDGCRVPAVVFTTLRGYQLCAPPDQPWVDRIIRRLKKSSAKNKGNSTRRSPVS
[1]
  binding result: binds

B7: mMIP-1gamma (murine macrophage inflammatory protein 1 gamma) (ligand, UniProt P51670 22-122, looked up)
chain: QITHATETKEVQSSLKAQQGLEIEMFHMGFQDSSDCCLSYNSRIQCSRFIGYFPTSGGCTRPGIIFISKRGFQVCANPSDRRVQRCIERLEQNSQPRTYKQ
notes: also called mMIP-1γ; CCF18
[1]
  binding result: binds
